B1: bsIgG1-huCD3-FEALxB7H4-C2-FEAR (bispecific antibody)
heavy 1: not shown
light 1: not shown
heavy 2: EVQLVQSGAEVKKPGASVKVSCKASGYTFTSYWIGWVRQAPGQGLEWIGDIYPGGGYTNYNEKFKGRVTITRDTSTSTAYLELSSLRSEDTAVYYCARLDGSSYRGAMDSWGQGTLVTVSSASTKGPSVFPLAPSSKSTSGGTAALGCLVKDYFPEPVTVSWNSGALTSGVHTFPAVLQSSGLYSLSSVVTVPSSSLGTQTYICNVNHKPSNTKVDKRVEPKSCDKTHTCPPCPAPEFEGGPSVFLFPPKPKDTLMISRTPEVTCVVVAVSHEDPEVKFNWYVDGVEVHNAKTKPREEQYNSTYRVVSVLTVLHQDWLNGKEYKCKVSNKALPAPIEKTISKAKGQPREPQVYTLPPSREEMTKNQVSLTCLVKGFYPSDIAVEWESNGQPENNYKTTPPVLDSDGSFFLYSRLTVDKSRWQQGNVFSCSVMHEALHNHYTQKSLSLSPGK
light 2: DIQMTQSPSSLSASVGDRVTITCKASQGFNKYVAWYQQKPGKAPKLLIYYTSTLQPGVPSRFSGSGSGRDYTLTISSLQPEDFATYYCLQYGNLLYAFGQGTKVEIKRTVAAPSVFIFPPSDEQLKSGTASVVCLLNNFYPREAKVQWKVDNALQSGNSQESVTEQDSKDSTYSLSSTLTLSKADYEKHKVYACEVTHQGLSSPVTKSFNRGEC
notes: also called bslgG1-huCD3-FEALxB7H4-C2-FEAR
B2: bsIgG1-huCD3-FEALxB7H4-C3-FEAR (bispecific antibody)
heavy 1: not shown
light 1: not shown
heavy 2: EVQLVQSGAEVKKPGASVKVSCKASGYTFTNFWIHWVRQAPGQGLEWIGEIDPSDSYTNYNQKFKGRVTITRDTSTSTAYLELSSLRSEDTAVYYCAREITTVDYWGQGTLVTVSSASTKGPSVFPLAPSSKSTSGGTAALGCLVKDYFPEPVTVSWNSGALTSGVHTFPAVLQSSGLYSLSSVVTVPSSSLGTQTYICNVNHKPSNTKVDKRVEPKSCDKTHTCPPCPAPEFEGGPSVFLFPPKPKDTLMISRTPEVTCVVVAVSHEDPEVKFNWYVDGVEVHNAKTKPREEQYNSTYRVVSVLTVLHQDWLNGKEYKCKVSNKALPAPIEKTISKAKGQPREPQVYTLPPSREEMTKNQVSLTCLVKGFYPSDIAVEWESNGQPENNYKTTPPVLDSDGSFFLYSRLTVDKSRWQQGNVFSCSVMHEALHNHYTQKSLSLSPGK
light 2: DIQMTQSPSSLSASVGDRVTITCSATSSISYMHWYQQKPGKAPKGWIYDTSKLAHGVPSRFSGSGSGTDFTLTISSLQPEDFATYYCHQRRSYPFTFGQGTKVEIKRTVAAPSVFIFPPSDEQLKSGTASVVCLLNNFYPREAKVQWKVDNALQSGNSQESVTEQDSKDSTYSLSSTLTLSKADYEKHKVYACEVTHQGLSSPVTKSFNRGEC
notes: also called bslgG1-huCD3-FEALxB7H4-C3-FEAR

How the values were obtained:
B7H3 = molecular target: T1, B7H3; test: flow cytometry, transiently transfected HEK cells, MFI as % of IgG1-B7H3-BRCA84D
T1 construct: also called human B7H3
T1 full-length protein on cells: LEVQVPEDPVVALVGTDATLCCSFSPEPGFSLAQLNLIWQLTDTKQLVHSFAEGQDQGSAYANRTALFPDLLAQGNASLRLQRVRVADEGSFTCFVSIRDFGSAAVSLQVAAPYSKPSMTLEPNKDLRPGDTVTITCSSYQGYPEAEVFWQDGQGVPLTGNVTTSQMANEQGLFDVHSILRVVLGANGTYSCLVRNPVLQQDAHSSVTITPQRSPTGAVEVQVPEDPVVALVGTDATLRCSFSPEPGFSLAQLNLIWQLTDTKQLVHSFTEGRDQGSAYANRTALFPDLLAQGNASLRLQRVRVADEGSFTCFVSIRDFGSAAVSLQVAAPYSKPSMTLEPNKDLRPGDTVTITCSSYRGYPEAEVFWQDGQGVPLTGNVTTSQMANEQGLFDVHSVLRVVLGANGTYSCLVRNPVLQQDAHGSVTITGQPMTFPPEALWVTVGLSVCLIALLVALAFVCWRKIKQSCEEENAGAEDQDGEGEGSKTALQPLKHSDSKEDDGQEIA
Description: (§1) Expression constructs were prepared encoding human B7H4, human B7H3 (Uniprot accession no. Q5ZPR3-1; SEQ ID NO: 9), or a chimeric molecule containing the IgV domain of B7H3 and the IgC domain of B7H4 (B7H3-IgV/B7H4-IgC; SEQ ID NO: 11), or a chimeric molecule containing the IgV domain of B7H4 and the IgC domain of B7H3 (B7H4-IgV/B7H3-IgC; SEQ ID NO: 10). HEK cells were transiently transfected to express these constructs.
(§2) Cells (3×10⁴ cell/well) were incubated in polystyrene 96-well round-bottom plates (Greiner bio-one, cat. no. 650101) with serial dilutions of antibodies (range 0.0046 to 10 μg/mL in 3-fold dilution steps) in 50 μL PBS/0.1% BSA/0.02% azide (FACS buffer) at 4° C. for 30 min. After washing twice in FACS buffer, cells were incubated with secondary antibody at 4° C. for 30 min. As a secondary antibody, R-Phycoerythrin (PE)-conjugated goat-anti-human IgG F(ab′)₂ (1:500 in staining buffer; Jackson ImmunoResearch Laboratories, Inc., West Grove, PA, cat. no. 109-116-098) was used. Next, cells were washed twice in FACS buffer, re-suspended in 20 μL FACS buffer and analyzed on an iQue Screener (Intellicyt Corporation, USA).

B7H4-IgV/B7H3-IgC = molecular target: T2, B7H4-IgV/B7H3-IgC; test: flow cytometry, transiently transfected HEK cells, antibody at 10 µg/mL, MFI as % of the control antibody of the panel [continued) III]
T2 construct: also called chimeric molecule with the IgV domain of B7H4 and the IgC domain of B7H3
T2 full-length chimeric protein on cells: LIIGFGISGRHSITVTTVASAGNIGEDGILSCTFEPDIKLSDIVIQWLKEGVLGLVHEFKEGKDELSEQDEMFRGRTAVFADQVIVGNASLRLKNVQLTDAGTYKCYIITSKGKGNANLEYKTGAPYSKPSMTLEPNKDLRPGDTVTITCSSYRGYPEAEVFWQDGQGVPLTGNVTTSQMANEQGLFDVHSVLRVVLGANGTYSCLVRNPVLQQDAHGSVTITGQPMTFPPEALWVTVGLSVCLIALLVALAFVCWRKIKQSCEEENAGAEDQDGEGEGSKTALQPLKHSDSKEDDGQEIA
Description: as §1, §2

B7H3-IgV/B7H4-IgC = molecular target: T3, B7H3-IgV/B7H4-IgC; test: flow cytometry, transiently transfected HEK cells, antibody at 10 µg/mL, MFI as % of the control antibody of the panel
T3 construct: also called chimeric molecule with the IgV domain of B7H3 and the IgC domain of B7H4
T3 full-length chimeric protein on cells: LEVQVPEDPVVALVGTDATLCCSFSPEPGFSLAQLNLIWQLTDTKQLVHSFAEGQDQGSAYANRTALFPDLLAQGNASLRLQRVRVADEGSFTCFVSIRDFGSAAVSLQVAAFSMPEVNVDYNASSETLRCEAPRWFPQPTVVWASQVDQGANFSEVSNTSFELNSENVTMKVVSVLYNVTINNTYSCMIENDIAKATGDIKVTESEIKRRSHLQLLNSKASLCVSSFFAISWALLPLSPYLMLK
Description: as §1, §2

Binder | binding result (B7H3) | binding result (B7H4-IgV/B7H3-IgC) | binding result (B7H3-IgV/B7H4-IgC)
B1 | no binding (tested: 10 µg/mL) | binds | 
B2 | no binding (tested: 10 µg/mL) |  | binds

— US20240383982A1 (Genmab, published 2024)
